Experimental data as given in publication PMC7088246.

Target: recombinant glycosylated HIV-1 IIIB gp120 (baculovirus) (HIV-1 IIIB) (UniProt P04578)
Assay: SPR

| Substance | Ka | Kd | kon | koff |
| --- | --- | --- | --- | --- |
| His-tagged recombinant KAA-1 (natural protein) | 1.48e+09 M⁻¹ | 0.677 nM | 871000 M⁻¹ s⁻¹ |  |
| recombinant KAA-1 (His tag removed by thrombin) (natural protein) | 1.61e+09 M⁻¹ | 0.622 nM |  | 0.000529 s⁻¹ |
